Laboratory results published in paper PMC12062102, “Dual Targeting of Neuropilin-1 and Glucose Transporter for Efficient Fluorescence Imaging of Cancer” (Molecular Imaging and Biology, 2025).

What was measured:
MDA-MB-231 cells = assay: Flow cytometry / confocal imaging and blocking study in MDA-MB-231 cells; type: cell-based, human
Experimental: (§1) MDA-MB-231, HCT116, and NCI-H1299 cells in logarithmic growth phase were seeded in 6-well plate and incubated at 37 ℃ in a 5% CO2 humidified incubator for 12 h, then the cells were fixed with 4% paraformaldehyde containing 1% TritonX-100 overnight at 4 ℃. Next, cells were treated with NGF (2 μM) for 1 h, stained with DAPI for 5 min, and finally the fluorescent images were captured using laser scanning fluorescence confocal microscopy (Olympus IX51). Images were captured using a U-LH100 HG mercury lamp with a WIY (Cy5 channel) filter and a 200 ms exposure time. A 10 × eyepiece and a 20 × objective were used for a total magnification of 200 × . A scale bar of 50 μm was included for reference.
(§2) Cancer cells MDA-MB-231, NCI-H1299 and HCT116 in logarithmic growth phase were harvested and transferred to sterile tubes with DMEM medium at a density of 2 × 10^5 cells per tube. […] Subsequently, the cells were resuspended in 0.5 mL of PBS buffer, and about 2 × 10^4 target cells were extracted for flow cytometry analysis (FACS Verse, BD) with FL4 channel, and the mean fluorescence intensity was quantified using FlowJo software.
(§3) For the blocking study, the cells of HCT116, NCI-H1299, and MDA-MB-231 were pretreated with the D-glucose (50 μM), NRP1 peptide (50 μM), and D-glucose + NRP1 peptide (50 μM) for 30 min. […] Then the fluorescence signals were detected by flow cytometry and microscopy imaging.

HCT116 cells = assay: Flow cytometry / confocal imaging and blocking study in HCT116 cells; type: cell-based, human
Experimental: as §1, §2, §3

[1] = Experimental: Probe NGF (10 μM) was added to a mixture of H2O (0.5 mL) and n-octanol (0.5 mL), shaken thoroughly, and centrifuged for 3 min. The absorbance (A) of NGF in both H2O and n-octanol was measured using a UV-vis absorption spectrometer.
[2] = In vivo IVIS fluorescence imaging, signal clearance and persistence in tumor-bearing mice; parameters: species or system Balb/c nude mice; details: 25 μM NGF, 200 μL i.v.
Experimental: (§4) The SPF female Balb/c nude mice (4–5 weeks old) were obtained from Changzhou Cavens Laboratory Animal Co., LTD (Changzhou, China). Tumor models were created by subcutaneously injecting 0.5 ~ 1 × 10^7 MDA-MB-231, HCT116 or NCI-H1299 cells in 100 μL PBS into the right forelimb of the nude mice. Imaging studies were conducted once the tumor volume reached approximately 100 mm^3. All animal experiments requiring the use of mice were approved by the animal care committee of Shanghai University (ECSHU 2024–004).
(§5) Animal fluorescence imaging was conducted using an IVIS Imaging spectroscopy system (PerkinElmer Inc., USA). MDA-MB-231, HCT116, and NCI-H1299 tumor-bearing mice (n = 3–5) were intravenously injected with 25 μM NGF (200 μL) via the tail vein. Following injection, mice were anesthetized with a 2% v/v isoflurane/oxygen mixture at a flow rate of […] to maintain stable physiological conditions during imaging. Subsequently, long-term optical imaging observations of tumor-bearing mice were performed using the IVIS Spectrum imaging system (PerkinElmer, USA). Imaging scans were conducted at various time points (1, 2, 4, 6, 8, 12, 24, 36, 48, 60, and 72 h) after NGF administration. The excitation wavelength (λex) was set to 745 nm and the emission wavelength (λem) was set to 840 nm for optimal fluorescence signal acquisition.

[3] = Photostability of NGF under laser irradiation; type: physicochemical; details: 3 μM in methanol, laser irradiation 30 min, UV-vis absorbance A/A0
NCI-H1299 tumor = assay: In vivo IVIS fluorescence imaging, NCI-H1299 tumor-bearing mice; parameters: species or system Balb/c nude mice; details: 25 μM NGF, 200 μL i.v., n = 3–5
Experimental: as §4, §5

NCI-H1299 cells = assay: Confocal fluorescence imaging in NCI-H1299 cells; type: cell-based, human; details: NCI-H1299 (NRP1- and GLUT1-negative), NGF 2 μM, 1 h
Experimental: as §1
Cancer cells MDA-MB-231, NCI-H1299 and HCT116 in logarithmic growth phase were harvested and transferred to sterile tubes with DMEM medium at a density of 2 × 10^5 cells per tube. Various concentrations of NGF (0.125, 0.25, 0.5, 1, and 2 μM) were added, and the cells were incubated in a humidified incubator with 5% CO2 at 37 ℃ for 1 h. Subsequently, the cells were resuspended in 0.5 mL of PBS buffer, and about 2 × 10^4 target cells were extracted for flow cytometry analysis (FACS Verse, BD) with FL4 channel, and the mean fluorescence intensity was quantified using FlowJo software.

HCT116 tumor = assay: In vivo IVIS fluorescence imaging, HCT116 tumor-bearing mice; parameters: species or system Balb/c nude mice; details: 25 μM NGF
Experimental: as §4, §5

[4] = 3 μM in 10% (v/v) mouse serum, 37°C, 48 h incubation, UV-vis absorbance A/A0
Experimental: NGF solution (3 μM) was prepared in PBS and 10% (v/v) mouse serum, and the initial absorbance (A0) was measured. Then NGF was incubated with PBS and mouse serum at 37°C, and the absorbance (A) was recorded at 4, 8, 12, 24, and 48 h, respectively. The stability of the probe was evaluated based on the ratio of A/A0. For the photostability, NGF solution (3 μM) was prepared in methanol, and the initial absorbance (A0) was measured. Then NGF was then subjected to laser irradiation, and the absorbance measurements (A) were recorded at 5, 10, 15, 20, and 30 min, respectively. The stability of the probe was evaluated based on the ratio of A/A0.

MDA-MB-231 tumor = assay: In vivo IVIS fluorescence imaging, MDA-MB-231 tumor-bearing mice; parameters: species or system Balb/c nude mice; details: 25 μM NGF, 200 μL i.v., imaging up to 72 h
Experimental: as §4, §5

[5] = Aqueous stability of NGF in PBS; type: physicochemical; details: 3 μM in PBS, 37°C, 48 h incubation, UV-vis absorbance A/A0
[6] = Photophysical properties (absorption, emission, ε, ΦF); type: physicochemical
Experimental: To investigate the spectral characteristics of probe, NGF (25 μM) was prepared using methanol, and the NGF stock solution was diluted to various concentrations (0.5, 1, 2, 3, and 4 μM) with both methanol or water as solvents. The absorption spectra at various concentrations were recorded using a UV–vis absorption spectrometer. To better understand how the solvent affects the fluorescence properties of NGF, the fluorescence emission spectra of 4 μM NGF were analyzed in both methanol and water. The molar absorption coefficient (ε), fluorescence quantum yield (ΦF), as well as the stability of NGF were investigated, and the details were provided in the Supporting Information.
where, Ix is the measured integrated emission intensity; η is the refractive index of the solvent; A is the absorbance of the solution; the subscript x denotes the probe; st denotes the reference compound.

## CC(C)C[C@H](NC(=O)[C@H](C)NC(=O)CCOCCOCCOCCOCCn1cc(CCC[N+]2=C(C=CC3=C(Cl)C(=CC=C4N(CCCc5cn([C@H]6C(O)O[C@H](CO)[C@@H](O)[C@@H]6O)nn5)c5ccccc5C4(C)C)CCC3)C(C)(C)c3ccccc32)nn1)C(=O)N[C@@H](CCCCN)C(=O)N[C@@H](C)C(=O)N[C@@H](CC(=O)O)C(=O)N[C@@H](CCCCN)C(=O)O (some centres unmarked) [NGF]
MDA-MB-231 cells; MDA-MB-231, NGF 2 μM 1 h, pre-treatment 30 min with D-glucose (50 μM) or NRP1 peptide (50 μM), flow cytometry mean fluorescence intensity
  uptake relative to mono-receptor block conditions: 1.7–2.5 times
MDA-MB-231 cells; MDA-MB-231, NGF 2 μM, 1 h
  cellular internalization (confocal fluorescence): significantly internalized
HCT116 cells; HCT116, NGF 2 μM 1 h, pre-treatment 30 min with D-glucose (50 μM) or NRP1 peptide (50 μM), flow cytometry mean fluorescence intensity
  uptake relative to mono-receptor block conditions: 1.4–1.5 times
HCT116 cells; HCT116, NGF 2 μM, 1 h
  cellular internalization (confocal fluorescence): substantial internalization
[1]
  logP: -0.95 ± 0.07
[2]
  time for fluorescent signal to clear from non-target organs: ≤ 12 h
[3]
  absorbance as % of A0 after laser irradiation: 56.7%
NCI-H1299 tumor
  tumor fluorescence intensity: comparatively weak
NCI-H1299 cells
  cellular fluorescence (confocal): minimal fluorescence
HCT116 tumor; 200 μL i.v. tail vein, n = 3–5, λex 745 nm / λem 840 nm
  time post-injection at which tumor could be clearly identified: 1 h
HCT116 tumor; 200 μL i.v., imaging up to 72 h
  retention in tumor post-injection: at least 72 h
[4]
  absorbance as % of initial absorbance (A0) in 10% mouse serum: 95.2%
MDA-MB-231 tumor
  retention in tumor post-injection: at least 72 h
[5]
  absorbance as % of initial absorbance (A0) in PBS: 97.7%
[6]; 4 μM in methanol
  fluorescence intensity in methanol: 12365 a.u.
  maximum absorbance: 1.06
[6]; MeOH
  absorption peak (λmax) in MeOH: 783 nm
[6]; MeOH, λex = 750 nm
  fluorescence emission peak (λem) in MeOH: 807 nm
[6]; inferred from lower absorbance and fluorescence in H2O than in MeOH
  aggregation in aqueous solution: some degree of aggregation
[6]; n-octanol
  extinction coefficient ε in n-octanol: 124367 M⁻¹ cm⁻¹
